For the test, the target named is T1, CoV2 Parental S-RBD fused with human Fc (SARS-CoV-2, UniProt P0DTC2).
T1 construct: also called Parental RBD; RBD-Fc
In words: BLI. The following applies: both partners purified.

We go through 1 molecule from paper PMC9637154 (Communications Biology, 2022).

B1: shACE2 N53A/N90A/N322A triple glycan deletant (domain or fragment)
chain: STIEEQAKTFLDKFNHEAEDLFYQSSLASWNYNTAITEENVQNMNNAGDKWSAFLKEQSTLAQMYPLQEIQALTVKLQLQALQQNGSSVLSEDKSKRLNTILNTMSTIYSTGKVCNPDNPQECLLLEPGLNEIMANSLDYNERLWAWESWRSEVGKQLRPLYEEYVVLKNEMARANHYEDYGDYWRGDYEVNGVDGYDYSRGQLIEDVEHTFEEIKPLYEHLHAYVRAKLMNAYPSYISPIGCLPAHLLGDMWGRFWTNLYSLTVPFGQKPNIDVTDAMVDQAWDAQRIFKEAEKFFVSVGLPAMTQGFWENSMLTDPGNVQKAVCHPTAWDLGKGDFRILMCTKVTMDDFLTAHHEMGHIQYDMAYAAQPFLLRNGANEGFHEAVGEIMSLSAATPKHLKSIGLLSPDFQEDNETEINFLLKQALTIVGTLPFTYMLEKWRWMVFKGEIPKDQWMKKWWEMKREIVGVVEPVPHDETYCDPASLFHVSNDYSFIRYYTRTLYQFQFQEALCQAAKHEGPLHKCDISNSTEAGQKLFNMLRLGKSEPWTLALENVVGAKNMNVRPLLNYFEPLFTWLKDQNKNSFVGWSTDWSPYADQSIK
notes: also called N53A/N90A/N322A triple deletant; N53A/N90A/N322 triple deletant
For the molecule B1, the Kd (in general, the equilibrium constant for the complex coming apart) came out at 254 nM.
